Laboratory results taken from US20260234240A1 (published 2026).

Experiments:
hIL10R1 = assay: kinetic binding assay
MK1966 = assay: SPR
MK1966 (benchmark) = assay: kinetic binding assay
cynoIL10 = assay: kinetic binding assay
[1] = target: T1, IL-10 (Accession no. P22301) (UniProt P22301 19-178); assay: SPR
T1 chain: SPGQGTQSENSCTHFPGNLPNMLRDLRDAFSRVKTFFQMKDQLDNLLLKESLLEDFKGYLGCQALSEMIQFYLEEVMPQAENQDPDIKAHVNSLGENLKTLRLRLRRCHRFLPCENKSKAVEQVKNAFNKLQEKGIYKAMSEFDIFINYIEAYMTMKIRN

[2] = target: T1, IL-10 (Accession no. P22301); assay: kinetic binding assay
Cyno IL10 = assay: SPR

B1: αIL-10R candidate (antibody, V domains shown)
VH: QVQLQESGPGLVKPSETLSLTCTVSGGSISSDYWSWIRQPAGKRLEWIGRIFTSGSTNYNPSLKSRVTMSVDTSKNQFSLKLNSLTAADTAVYYCARDDWYFDLWGRGTLVTVSS
VL: EIVMTQSPATLSVSPGERATLSCRASQSVSNNLAWYQQKPGQAPRFLIYGASTRATGMPARFSGSGSGTEFTLTISSLQSEDFAVYFCQQYNEWPWTFGQGTKVEIK
Kd (hIL10R1): 117 pM

B2: Human IL10 (ligand)
chain: SPGQGTQSENSCTHFPGNLPNMLRDLRDAFSRVKTFFQMKDQLDNLLLKESLLEDFKGYLGCQALSEMIQFYLEEVMPQAENQDPDIKAHVNSLGENLKTLRLRLRRCHRFLPCENKSKAVEQVKNAFNKLQEKGIYKAMSEFDIFINYIEAYMTMKIRN
Kd (MK1966): 140 pM

B3: hIL10 (ligand)
chain: SPGQGTQSENSCTHFPGNLPNMLRDLRDAFSRVKTFFQMKDQLDNLLLKESLLEDFKGYLGCQALSEMIQFYLEEVMPQAENQDPDIKAHVNSLGENLKTLRLRLRRCHRFLPCENKSKAVEQVKNAFNKLQEKGIYKAMSEFDIFINYIEAYMTMKIRN
Kd (MK1966 (benchmark)): 26.6 pM

B4: h49G08 (antibody, V domains shown)
VH: EVQLVESGGGLVQPGGSLRLSCAASGFTFSDYYMYWVRQAPGKGLEWVSTISDGGSYTYYPDSVKGRFTISRDNAKNNLYLQMNSLRAEDTAVYYCARGYYYGLFTYWGQGTLVTVSS
VL: DIQMTQSPSSLSASVGDRVTITCRASQDVNTGLNWYQQKPGQAPKLLIYWASSRQSGVPSRFSGSGSGTDFTLTISSLQPEDFATYYCQQHYSTPYTFGQGTKLEIK
Kd (cynoIL10): < 1 pM

B5: 49G08_H1L2 (antibody, V domains shown)
VH: EVQLVESGGGLVQPGGSLRLSCAASGFTFSDYYMYWVRQAPGKGLEWVSTISDGGSYTYYPDSVKGRFTISRDNAKNNLYLQMNSLRAEDTAVYYCARGYYYGLFTYWGQGTLVTVSS
VL: DIQMTQSPSSLSASVGDRVTITCRASQDVNTGLNWYQQKPGQAPKLLIYWASSRQSGVPSRFSGSGSGTDFTLTISSLQPEDFATYYCQQHYSTPYTFGQGTKLEIK
Kd [1]: 160 pM | Kd [2]: 19.9 pM

B6: hu49G08 (antibody, V domains shown)
VH: EVQLVESGGGLVQPGGSLRLSCAASGFTFSDYYMYWVRQAPGKGLEWVSTISDGGSYTYYPDSVKGRFTISRDNAKNNLYLQMNSLRAEDTAVYYCARGYYYGLFTYWGQGTLVTVSS
VL: DIQMTQSPSSLSASVGDRVTITCRASQDVNTGLNWYQQKPGQAPKLLIYWASSRQSGVPSRFSGSGSGTDFTLTISSLQPEDFATYYCQQHYSTPYTFGQGTKLEIK
Kd (Cyno IL10): 110 pM
